{
  "source": "patent US20050239074",
  "target": "T1, human parathyroid hormone, P01270",
  "T1 chain": "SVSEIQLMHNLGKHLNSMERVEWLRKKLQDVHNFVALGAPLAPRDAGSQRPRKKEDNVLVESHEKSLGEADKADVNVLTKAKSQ",
  "data": [
    {"protein": "Hansenula polymorpha yapsin1 (protein) DPQFVKLEASVLRGSTYKDSQKGAKPFMLEKRADDGSVTMELQNAQSFYQVEIEIGSDKQKVGVLIDTGSSDLWVMNSNNSYCSSSSTKKLKRDGPADALQKGRDLSDLYNFNSPNEDNNAKGFLGGWGDLTTVETATQDETQTALAAQATVDCSLYGTFNPSTSNSFHNNGTTFEISYADRTFARGTWGYDDVTFNGVTVNDLSLAVADETDSSTGVFGIGLRELETTYSGGGPQHYIYDNLPFKMVDQGLINRAAYSVYLNSTESSTASILFGAVDQSKYTGSLGLLPIINTAASYGYQKPLRLQITLSAITVSDSRGQQASIGSGAAAALLDTGTTLTYAPSEIVEKLAETLGFDYSSSVGAYVARCRDVDSYAVNFDFQGKVIEAPLSSFLIALQTNSGEVSSYCALGIFSSGDESFTLGDTFLRNAYFVADLEGYQIAIANVNLNPGAEQIEVISGNSIPSASSVSDYSNTWGASATALDTDRPTTLGSVTAVGDERVTSTKKVSSVKTSTSSGSGSTSESSTSSSHSSNGPRTVGFSLCAVLCAFLISILVV", "values": [
      {"measurement": "degradation level of hPTH by the yapsin activity (culture supernatant incubated with hPTH for 2, 4 and 6 hours at 37 C, SDS-polyacrylamide gel)", "result": "in the culture fluid of the wild type, it was already hard to observe hPTH remaining in the culture supernatant after 2 hour cultivation, while in the culture supernatant of hpyps1Δ mutant strain, a substantial amount of hPTH was observed"}
    ]}
  ]
}
